Assay results: publication PMC2927421, “Tyrosine-Phosphorylated Caveolin-1 Blocks Bacterial Uptake by Inducing Vav2-RhoA-Mediated Cytoskeletal Rearrangements” (PLoS Biology, 2010)
Positions count from the first letter of the chain named. Like-named read-outs stand apart in the source and are kept apart here. Where no end group is shown, it is not given here. [ ]: non-standard residue; d: D form. pY = N[C@@H](Cc1ccc(OP(=O)(O)O)cc1)C(=O)O

Columns and labels:
[1] = target: Phospholipase Cγ1 (PLCγ1) (UniProt P19174); test: biotin-peptide streptavidin pull-down from lysate; conditions: reference: non-phosphorylated peptide; sites Y14
Vav2 = Vav2 (UniProt P52735); test: biotin-peptide streptavidin pull-down from lysate; conditions: reference: non-phosphorylated peptide; sites Y14
[2] = target: T1, SH2 domain of Phospholipase Cγ1 (recombinant, on protein microarray) (human); test: tandem NC SH2 domains
T1 chain: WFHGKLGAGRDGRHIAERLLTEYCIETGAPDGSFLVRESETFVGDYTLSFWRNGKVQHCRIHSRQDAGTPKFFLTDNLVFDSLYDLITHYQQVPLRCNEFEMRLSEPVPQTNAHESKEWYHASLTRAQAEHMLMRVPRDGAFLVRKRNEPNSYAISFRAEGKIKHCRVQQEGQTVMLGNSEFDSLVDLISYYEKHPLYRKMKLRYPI

[3] = target: T2, SH2 domain of Abl1 (recombinant, on protein microarray) (human, UniProt P00519 127-217); test: peptide or protein array; recombinant human SH2 and PTB domains spotted on protein microarrays; probed in duplicate with eight concentrations of fluorescently labeled peptide, 10 nM to 5 µM; fluorescence fit to a saturation binding equation; conditions: both partners purified
T2 construct: Abl1, human, SH2 domain
T2 sequence (looked up): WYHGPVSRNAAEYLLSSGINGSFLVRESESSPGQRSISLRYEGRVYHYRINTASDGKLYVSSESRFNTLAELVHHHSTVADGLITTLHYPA

[4] = target: T3, SH2 domain of Grb10 (recombinant, on protein microarray) (human, UniProt Q13322 493-574); test: as above; conditions: both partners purified
T3 construct: Grb10, human, SH2 domain
T3 sequence (looked up): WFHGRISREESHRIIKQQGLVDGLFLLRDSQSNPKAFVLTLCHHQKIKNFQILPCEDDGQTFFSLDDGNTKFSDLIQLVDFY

[5] = target: T4, SH2 domain of Abl2 (recombinant, on protein microarray) (human, UniProt P42684 173-263); test: as above; conditions: both partners purified
T4 construct: Abl2, human, SH2 domain
T4 sequence (looked up): T2 sequence (looked up) with N9S, G18L, R35L, A53T, S54A, L58V, S61T, S62A, N67S, I84V

[6] = target: T5, SH2 domain of the RhoA GEF Vav2 (recombinant, on protein microarray) (human, UniProt P52735 673-767); test: as above; conditions: both partners purified
T5 construct: Vav2, human, SH2 domain
T5 sequence (looked up): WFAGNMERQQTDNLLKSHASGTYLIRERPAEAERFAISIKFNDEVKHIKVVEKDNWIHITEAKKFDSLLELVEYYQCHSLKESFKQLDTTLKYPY

[7] = target: T6, SH2 domain of SH2D3C (recombinant, on protein microarray) (human, UniProt Q8N5H7 220-319); test: as above; conditions: both partners purified
T6 construct: SH2D3C, human, SH2 domain
T6 sequence (looked up): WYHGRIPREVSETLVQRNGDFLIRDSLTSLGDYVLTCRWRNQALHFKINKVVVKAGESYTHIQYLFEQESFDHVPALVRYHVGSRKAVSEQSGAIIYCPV

[8] = target: T7, SH2 domain of Phospholipase Cγ1 (recombinant, on protein microarray) (human); test: as above; conditions: both partners purified
T7 chain: T1 chain

[9] = target: T8, SH2 domain of SH2D3C (recombinant, on protein microarray) (human, UniProt Q8N5H7 220-319)
T8 chain: T6 sequence (looked up)

[10] = target: T9, SH2 domain of Abl2 (recombinant, on protein microarray) (human, UniProt P42684 173-263)
T9 chain: T2 sequence (looked up) with N9S, G18L, R35L, A53T, S54A, L58V, S61T, S62A, N67S, I84V

[11] = target: T10, SH2 domain of Grb10 (recombinant, on protein microarray) (human, UniProt Q13322 493-574)
T10 chain: T3 sequence (looked up)

[12] = target: T11, SH2 domain of Abl1 (recombinant, on protein microarray) (human, UniProt P00519 127-217)
T11 chain: T2 sequence (looked up)

RasA1 = target: T12, RasA1 (Homo sapiens)
T12 chain: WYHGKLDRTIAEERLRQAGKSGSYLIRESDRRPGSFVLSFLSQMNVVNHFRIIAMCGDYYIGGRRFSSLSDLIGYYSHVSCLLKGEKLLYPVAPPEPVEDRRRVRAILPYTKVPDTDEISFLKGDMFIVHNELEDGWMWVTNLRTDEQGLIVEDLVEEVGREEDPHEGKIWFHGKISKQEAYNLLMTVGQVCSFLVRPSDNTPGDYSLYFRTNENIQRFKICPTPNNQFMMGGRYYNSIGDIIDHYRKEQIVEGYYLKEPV

caveolin-1 (Cav1) 7-21 (from UniProt Q03135) pTyr14 peptide
binding against the reference [1]: stronger
binding against the reference (Vav2): stronger

B1: fluorescently labeled Tyr14-Cav1 phosphopeptide (residues 5-22 of Cav1, phosphorylated on Tyr14) (peptide, UniProt Q03135 5-22, looked up)
peptide: KYVDSEGHL[pY]TVPIREQG
modifications: also: fluorescent label (position not given here)
notes: caveolin-1 (Cav1), human, residues 5-22; also called Tyr14-Cav1 phosphopeptide (18 amino acids); source: synthetic peptide, purified to >95% by preparative reverse phase HPLC
Kd [2]: 482 nM
Kd [3]: < 2000 nM
Kd [4]: < 2000 nM
Kd [5]: < 2000 nM
Kd [6]: 222 nM
Kd [7]: < 2000 nM
Kd [8]: < 2000 nM
Kd [9]: 874 nM
Kd [10]: 58 nM
Kd [11]: 1370 nM
Kd [12]: 1640 nM

B2: fluorescently labeled non-phosphorylated Cav1 peptide (residues 5-22 of Cav1) (peptide)
peptide: KYVDSEGHLYTVPIREQG
modifications: also: fluorescent label (position not given here)
Kd (RasA1): 1390 nM
